Common to all, as to format: cell-based, human
The subject of test [1] is HCT116, HT29 and SW620 cells. The test can be described thus: Tumorsphere assay. The note with it: for sphere formation capacity: SW620 cells, exogenous Wnt3A, EpEX or combination. As to the method: Cells were seeded in ultra-low adherent 6-well plates (5×10^4 cells per well) or 24-well plates (1×10^3 cells per well) and maintained in DMEM/F-12 supplemented with B27. Further, cells were treated with 20 μg/mL mEpAb2-6, hEpAb2-6 or MT201 (Produced in house), or 400 ng/mL LGK974 (MedChemExpress) or the combination, by direct addition to the culture medium. The entire culture medium, including the treatment component, was changed in every other day. Cells were cultured for 10 days, and on 10th day, spheres were counted and photographed under the microscope.

Test [2] relates to active β-Catenin. The experiment in a line: Nuclear translocation of β-Catenin (immunofluorescence staining; cell fractionation with western blot). The protocol: Cells (1×10^6) were seeded overnight and further allowed to grow in serum free conditions. Then cells were further treated with 20 μg/mL mEpAb2-6 or hEpAb2-6 or MT201 for 6 h or with 400 ng/mL LGK974 (MedChemExpress) for 9 h or combination as indicated. Samples were fractioned into cytosol and nuclear extracts using nuclear/cytosol fractionation kit (Biovision) according to the manufacturer's protocol. The fractions were then subjected to western blot analysis.
(§1) For western blotting, cells were extracted using radioimmunoprecipitation assay (RIPA) buffer [(0.01 M sodium phosphate, pH 7.2), 150 mM NaCl, 2 mM EDTA, 50 mM NaF, 1% Nonidet P-40, 1% sodium deoxycholate, and 0.1% SDS)] containing phosphatase inhibitor (Roche) and protease inhibitor (Roche) cocktail. Equal amounts of protein were separated by SDS-PAGE and then transferred to PVDF membranes. The membranes were blocked with 3% BSA in TBST (Blocking solution) and incubated with necessary primary antibodies in the blocking solution overnight at 4° C. Membranes were then incubated with HRP-conjugated secondary antibodies in the blocking solution for 1 h at room temperature, and protein expression were detected. Antibodies used: anti-α-tubulin (Sigma), anti-EpCAM (abeam), anti-Active β-Catenin (Millipore), anti-total β-Catenin (abeam), anti-Frizzled 6 (CST), anti-Frizzled 7 (Santa Cruz Biotech), anti-LRP5 (abcam), anti-Phospho-LRP5 (abcam), anti-Phospho-LRP6 (CST), anti-LRP6 (CST) and anti-EpEX antibody EpAb3-5 (Produced in house), anti-ADAM17 (abcam), anti-phopho-ADAM17 (abcam), anti-Presenilin2 (abcam), anti-phospho-Presenilin2 (S327) (abcam), anti-phospho-Presenilin2 (S330) (abcam) and anti-Axin2 (CST).
Glass slides were used in 24-well plates and coated with 0.1% gelatin. Further, 3×10^4 cells were seeded in serum free medium overnight. Cells were treated with 20 μg/mL EpAb2-6 for 6 h, or 400 ng/mL LGK974 (MedChemExpress) for 9 h or the combination. Cells were washed using ice-cold PBS and fixed with 4% paraformaldehyde for 15 min at RT and washed with ice-cold PBS. Further, cells were permeabilized using 0.1% triton-X in PBS for 20 min and subsequently washed with PBS. Cells were blocked with 3% BSA in PBS for 1 h at RT. Next, cells were treated with primary antibody anti-Active β-Catenin (Millipore) overnight. Then, cells were washed and treated with secondary antibody in 3% BSA containing PBS along with DAPI for 1 h at RT. Samples were then washed in PBS five times and mounted for microscopy. Nuclear β-Catenin intensities were calculated using IMARIS (Oxford Instruments) software.
In general terms: A western blot detects proteins with antibodies after separation by electrophoresis.

In test [3] the test system is HT29 and SW620 cells. The test can be described thus: Colony formation assay. To be noted: for colony formation capacity: SW620 cells, exogenous Wnt3A, EpEX or combination. As to the method:
Cells were seeded in 12-well plate (5×10^3 cells per well) and treated with 20 µg/mL mEpAb2-6, hEpAb2-6 or MT201 (Produced in house) or 400 ng/mL LGK974 (MedChemExpress) or combination as indicated in which case the elements were directly added to the culture medium. The medium along with the treatment component were changed in every alternating day and the cells were allowed to grow for 10 days. On the tenth day, cells were washed and fixed with 4% paraformaldehyde and further stained with 1% crystal violet for 30 min. Colonies were washed 3 times with PBS, and images were taken. Furthermore, to measure colony density, the wells were incubated with 0.5% SDS shaking for 2 h at RT. The supernatants were collected, and the absorbance of the solution was taken at 570 nm using a microplate reader.

Test [4] deals with TCF. The test can be described thus: TCF activity (TOP-Flash TCF luciferase reporter). The protocol:
Cells were plated at 5×10^3 cells per well and grown overnight in 12-well plates. Then, cells were transiently transfected with TOP-Flash TCF reporter plasmid (Millipore) using poly-jet transfection reagent (SignaGen). At 48 h post transfection, cells were treated with 20 µg/mL Anti-EpCAM EpAb2-6 (Produced in house) or MT201 (Produced in house) for 6 h or 400 ng/mL LGK974 (MedChemExpress) for 9 h or the combination, as indicated. In addition, cells were treated with EpEX (Produced in house by Expi293 Expression System) or recombinant Wnt3A (R & D systems) or the combination for 8 h. Finally, cells were lysed, and the luciferase assay was performed.
The cells were seeded in 24-well plates (1×10^4 cells/well) and incubated at 37° C. for 24 h. The culture media were refreshed, and the cells were transfected with respective reporter plasmids (TCF reporter or Wnt receptor promoter reporter) by PolyJET (SignaGen). The transfected efficiency was normalized by co-transfected with pRL-TK (20 ng) as an internal control. Additional treatments were conducted as indicated. Firefly luciferase and Renilla luminescence were measured 48 h post-transfection using the Dual-Glo Luciferase Assay System (Promega), according to the manufacturer's recommendations.

Test [5] concerns LRP5/6. The experiment in a line: Phosphorylation of LRP5/6 (western blot). As to the method:
as §1

Test [6] relates to Oct4, Sox2 and c-Myc. The experiment in a line: Stemness (pluripotency) factor expression (western blot, qPCR). To be noted: HT29 cells. The protocol: as §1
(§2) Total RNA was extracted using TRI reagent and 5 μg of the total RNA was further reverse-transcribed using oligo (dT) primer with reverse transcriptase. Quantitative real time RT-PCR (qPCR) was performed on cDNA using the Light Cycler 480 SYBR Green-I Master kit and the LightCycler480 System. The gene expression levels of each sample were normalized to the expression levels of glyceraldehyde 3-phosphate dehydrogenase (GAPDH) or β-actin.

Test [7] concerns Wnt receptors (FZD6/7, LRP5/6). The experiment in a line: Wnt receptor protein and mRNA expression (western blot, qPCR). The note with it: HCT116 cells. The protocol: as §1, §2
[8] abbreviates: HCT116 cells, exogenous EpEX, Wnt3A or combination.
Setting [9] is: wild-type HCT116 cells, EpEX, recombinant Wnt3A or both.
The mark [10] stands for this setting: EpEX, Wnt3A or combination, protein and mRNA level.
Setting [11] is: wild-type SW620 and HCT116 cells, EpEX, recombinant Wnt3A or the combination for 8 h.
The mark [12] stands for this setting: EpCAM-knockout cells, exogenous EpEX, LGK974 or both.

As to “MT201: adecatumumab, a human anti-EpCAM antibody that was subjected to clinical trials [reference compound]”, the “ability to inhibit sphere formation” value in test [1] (comparison of EpAb2-6 with MT201, 20 μg/mL) was “shows no activity”. Moreover, the “nuclear translocation of β-Catenin” value in test [2] (HT29 cells, 20 μg/mL hEpAb2-6 or MT201 for 6 h) is “did not show any significant effects”. Besides, the “ability to inhibit colony formation” value in test [3] (comparison of EpAb2-6 with MT201, 20 g/mL) is “shows no activity”. Also, in test [4] (HT29 cells, 20 µg/mL antibody for 6 h), the TCF activity result is given as “did not show any significant effects”.

B1: EpAb2-6: anti-EpCAM (EpEX) neutralizing monoclonal antibody produced in mice by hybridoma; VH SEQ ID NO: 15, VL SEQ ID NO: 16 (antibody, V domains shown)
VH: VKLQESGPELKKPGETVKISCKASGYTFTDYSMHWVKQAPGKGLKWMGWINTETGEPTYADDFKGRFAFSLETSASTAYLQINNLKNEDTATYFCARTAVYWGQGTTVTVSS
VL: DIQMTQSPSSLSASLGERVSLTCRASQEISVSLSWLQQEPDGTIKRLIYATSTLDSGVPKRFSGSRSGSDYSLTISSLESEDFVDYYCLQYASYPWTFGGGTKLEIK
Consider B1, for which the tumorsphere formation result in test [1] (HCT116 and HT29 cells, 20 μg/mL EpAb2-6, 400 ng/mL LGK974 or combination, 10 days) is given as “decreased”. Moreover, the cancer stemness properties result in test [1] (summary statement, CRC cells, tumorsphere and colony formation) is “partially attenuate cancer sternness properties”. Also, the LRP5/6 phosphorylation result in test [5] (SW620 cells, LGK974, EpAb2-6 or combined treatment) is “could decrease LRP5/6 phosphorylation”. For the same molecule, the “nuclear β-Catenin” value in test [2] (wild-type HCT116 cells, 20 μg/mL EpAb2-6 for 6 h, 400 ng/mL LGK974 for 9 h or combination) is listed as “significantly decreased nuclear β-Catenin signal”. The “expression of pluripotency factors” value in test [6] (LGK974, EpAb2-6 or combined treatment) was “decreased pluripotency factor expressions”. The colony formation result in test [3] (HT29 cells, 20 µg/mL EpAb2-6, 400 ng/mL LGK974 or combination, 10 days) is reported as “decreased”. For the same molecule, in test [7] (EpAb2-6, LGK974 or combination), the “expression of Wnt receptors” value is recorded as “partially decrease”.

B2: Wnt3A: recombinant Wnt3A (R & D systems) (protein, UniProt P56704 19-352, looked up)
Protein Wnt-3a: SYPIWWSLAVGPQYSSLGSQPILCASIPGLVPKQLRFCRNYVEIMPSVAEGIKIGIQECQHQFRGRRWNCTTVHDSLAIFGPVLDKATRESAFVHAIASAGVAFAVTRSCAEGTAAICGCSSRHQGSPGKGWKWGGCSEDIEFGGMVSREFADARENRPDARSAMNRHNNEAGRQAIASHMHLKCKCHGLSGSCEVKTCWWSQPDFRAIGDFLKDKYDSASEMVVEKHRESRGWVETLRPRYTYFKVPTERDLVYYEASPNFCEPNPETGSFGTRDRTCNVSSHGIDGCDLLCCGRGHNARAERRREKCRCVFHWCCYVSCQECTRVYDVHTCK
Take B2: the sphere formation capacity entry in test [1] is on record as “enhanced”. The LRP5/6 phosphorylation result in test [5] (setting [8]) is reported as “increased LRP5/6 phosphorylation”. In test [2] (setting [9]), the “nuclear translocation of β-Catenin” value is reported as “could increase”. The “expression of pluripotency factors” value in test [6] (EpEX, Wnt3A or combination) is listed as “induced expressions of pluripotency factors”. In addition, the colony formation capacity entry in test [3] is listed as “enhanced”. Moreover, the “expression of Wnt receptors” value in test [7] (setting [10]) is “upregulated expressions of Wnt receptors”. The TCF activity result in test [4] (setting [11]) was “could increase”.

B3: EpEX: extracellular domain of EpCAM, produced in house by Expi293 Expression System (protein)
chain: QEECVCENYKLAVNCFVNNNRQCQCTSVGAQNTVICSKLAAKCLVMKAEMNGSKLGRRAKPEGALQNNDGLYDPDCDESGLFKAKQCNGTSMCWCVNTAGVRRTDKDTEITCSERVRTYWIIIELKHKAREKPYDSKSLRTALQKEITTRYQLDPKFITSILYENNVITIDLVQNSSQKTQNDVDIADVAYYFEKDVKGESLFHSKKMDLTVNGEQLDLDPGQTLIYYVDEKAPEFSMQGLKAGVIAVIVVVVIAVVAGIVVLVISRKKRMAKYEKAEIKEMGEMHRELNA
For the molecule B3, the tumorsphere formation result in test [1] (setting [12]) is listed as “reverted to wild-type levels”. Besides, in test [1], the sphere formation capacity entry was “enhanced”. Further, the LRP5/6 phosphorylation result in test [5] (setting [8]) is recorded as “increased LRP5/6 phosphorylation”. Further, the “nuclear accumulation of β-Catenin” value in test [2] (shEpCAM or KO-EpCAM HCT116 cells treated with exogenous EpEX) is listed as “significant increase in nuclear accumulation of β-Catenin”. The “nuclear translocation of β-Catenin” value in test [2] (setting [9]) is “could increase”. The “expression of pluripotency factors” value in test [6] (EpEX, Wnt3A or combination) is “induced expressions of pluripotency factors”. Also, in test [3] (setting [12]), the colony formation result is recorded as “reverted to wild-type levels”. The colony formation capacity entry in test [3] is on record as “enhanced”. Further, the “expression of Wnt receptors” value in test [7] (setting [10]) is “upregulated expressions of Wnt receptors”. The TCF activity entry in test [4] (EpEX-treated EpCAM-knockdown and knockout HCT116 cells) is recorded as “significantly rescued the phenomenon”; in test [4] (setting [11]) it was “could increase”.

Values taken from patent publication US20250129146A1, “COMBINED CANCER THERAPY WITH AN EPITHELIAL CELL ADHESION MOLECULE (EPCAM) INHIBITOR AND A WNT INHIBITOR” (ACADEMIA SINICA, priority 2021, published 2025).
